From patent publication US20260184780A1 (MONASH UNIVERSITY, published 2026)
Values belong to the binder of their own block, whether it stands above or below them.

Tests used:
[1] = biological target: T1, human PAR4 on isolated human platelets (human, UniProt Q96RI0 18-385); experiment: cell-based or functional assay
T1 sequence: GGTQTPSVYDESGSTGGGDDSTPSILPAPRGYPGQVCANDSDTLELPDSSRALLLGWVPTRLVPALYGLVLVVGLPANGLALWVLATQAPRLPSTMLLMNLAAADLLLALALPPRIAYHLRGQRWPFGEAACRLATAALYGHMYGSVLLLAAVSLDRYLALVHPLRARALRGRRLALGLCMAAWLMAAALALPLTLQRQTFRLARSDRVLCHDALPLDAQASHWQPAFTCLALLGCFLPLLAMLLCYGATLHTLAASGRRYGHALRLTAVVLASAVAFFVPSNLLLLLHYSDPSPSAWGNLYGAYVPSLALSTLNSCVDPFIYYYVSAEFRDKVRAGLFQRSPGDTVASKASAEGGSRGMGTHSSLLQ

[2] = biological target: T1, human PAR4 on isolated human platelets; experiment: flow cytometry on isolated human platelets
hPAR1 (Biotin) peptide [3] = biological target: T2, hPAR1 (Biotin) peptide (human, not fully specified; biotin on the C-terminal lysine (SKB)); experiment: ELISA, biotinylated peptide on streptavidin plate, absorbance 405 nm
T2 construct: also called PAR1 peptide; PAR1 screening peptide
T2 peptide: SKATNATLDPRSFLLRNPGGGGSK
Experimental: (§1) Biotinylated peptides (hPAR1-4) were diluted in Wash buffer and allowed to bind to the blocked Streptavidin coated wells at 10 ug/ml (100 ul per well) for 1 hour at room temperature with gentle mixing. Wells were washed 3 times as above and purified anti-hPAR4 mAbs prepared at 10 ug/ml in Wash buffer were allowed to bind (100 ul/well) for 1 hour at room temperature with gentle mixing. The plate was washed 3 times as above and anti-mouse Fc conjugated to Alkaline phosphatase (AP) at 0.3 ug/ml (100 ul) was added to the wells for 1 hour as above. Wells were washed 3 times as above and developed with Alkaline Phosphatase substrate as described for the screening supernatant ELISA.
(§2) To further characterise the purified anti-hPAR4 mAb's the specificity of the mAbs to hPAR1, hPAR2, hPAR3 and hPAR4 biotinylated peptides was performed.

hPAR2 (Biotin) peptide [4] = biological target: T3, hPAR2 (Biotin) peptide (human, not fully specified; biotin on the C-terminal lysine (SKB)); experiment: as above
T3 construct: also called PAR2 peptide; PAR2 screening peptide
T3 peptide: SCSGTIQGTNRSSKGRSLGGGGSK
Experimental: as §1, §2

hPAR3 (Biotin) peptide [5] = biological target: T4, hPAR3 (Biotin) peptide (human, biotin on the C-terminal lysine (SKB)); experiment: as above
T4 construct: also called PAR3 peptide; PAR3 screening peptide
T4 peptide: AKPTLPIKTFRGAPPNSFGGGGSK
Experimental: as §1, §2

hPAR4 1-9 peptide = biological target: T5, hPAR4 1-9 peptide (human); experiment: ELISA, peptide coated on the plate, purified mAb, background subtracted
T5 construct: Range counted on the hPAR4 immunising peptide; also called peptide 1-9
T5 peptide: GDDSTPSIL
Experimental: (§3) Briefly the peptides were coated onto a Nunc maxisorp ELISA plate at 10 ug/ml overnight in coating buffer (0.1 M sodium carbonate pH8.0). Purified mAbs diluted in PBS were used in place of supernatant.

hPAR4 (naked) peptide [6] = biological target: T6, hPAR4 (naked) peptide (human); experiment: ELISA, purified mAb on hPAR4 peptide coated wells, anti-mouse Fc-AP, absorbance 405 nm
T6 construct: also called native PAR4 peptide; hPAR4 peptide
T6 peptide: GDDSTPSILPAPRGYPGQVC
Experimental: The experiment was completed with purified mAbs diluted in PBS instead of hybridoma supernatants.
The reactivity of seven purified anti-hPAR4 mAbs was analysed by ELISA (see Table 4).

[7] = biological target: T1, human PAR4 on isolated human platelets; experiment: cell-based or functional assay; remark: listed apart in the source
hPAR4 (naked) peptide [8] = biological target: T6, hPAR4 (naked) peptide; experiment: ELISA, hybridoma supernatant
hPAR1 (Biotin) peptide [9] = biological target: T2, hPAR1 (Biotin) peptide; experiment: ELISA, hybridoma supernatant
hPAR3 (Biotin) peptide [10] = biological target: T4, hPAR3 (Biotin) peptide; experiment: ELISA, hybridoma supernatant
hPAR4 (naked) peptide [11] = biological target: T6, hPAR4 (naked) peptide; experiment: ELISA, purified mAb on hPAR4 peptide
hPAR4 (Biotin) peptide [12] = biological target: T7, hPAR4 (Biotin) peptide (human, biotin on the C-terminal lysine (SKB)); experiment: SPR Biacore T200, biotin peptide on SA chip, whole mAb as analyte
T7 construct: also called hPAR4-biotinylated peptide; biotin-coupled human PAR4 peptide
T7 peptide: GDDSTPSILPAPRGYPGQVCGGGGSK
Experimental: (§4) The kinetics of the binding interaction between the mAbs and hPAR4 was measured using Surface Plasmon Resonance (SPR; Biacore) by two different methods: 1. Anti-mouse Fc mAb capture method and 2. Streptavidin (SA) chip to capture biotinylated peptide. The ka(on) rate and kd(off) rates and KD were measured and fitted to a Langmuir model using the Biacore evaluation software.

hPAR4 (Biotin) peptide [13] = biological target: T7, hPAR4 (Biotin) peptide; experiment: SPR Bio-Rad ProteOn XPR36, biotin peptide captured, purified mAb as analyte
hPAR4 (naked) peptide [14] = biological target: T6, hPAR4 (naked) peptide; experiment: SPR Biacore T200, mAb captured by anti-mouse Fc, hPAR4 peptide as analyte
Experimental: A series S CM5 sensor chip was activated with standard EDC/NHS amine coupling chemistry using the manufacturers recommended protocol with Goat anti-mouse IgG Fc. Anti-hPAR4 mAbs were captured at 1-2 ug/ml for 2 minutes at 10 ul/minute on flow cell 2 (FC2) and flow cell 1 (FC1) was used as a reference channel. […] Blank injections of buffer alone were also performed. All injections were performed in duplicate and in a random order.
as §4

hPAR4 8-15 peptide = biological target: T8, hPAR4 8-15 peptide (human); experiment: ELISA, peptide coated on the plate, purified mAb, background subtracted
T8 construct: Range counted on the hPAR4 immunising peptide; also called peptide 8-15; core peptide
T8 peptide: ILPAPRGY
Experimental: as §3

hPAR4 11-20 peptide = biological target: T9, hPAR4 11-20 peptide (human); experiment: as above
T9 construct: Range counted on the hPAR4 immunising peptide; the C-terminal cysteine was removed, so nine residues are given; also called peptide 11-20
T9 peptide: APRGYPGQV
Experimental: as §3

hPAR1 (Biotin) peptide [15] = biological target: T2, hPAR1 (Biotin) peptide; experiment: ELISA, hybridoma supernatant on immobilised peptide, binding as fold above control
Experimental: (§5) Wells were then washed with an automated plate washer (300 μl 1×PBS, 3 times). […] Wells were washed as above. A set of substrate tablets (1×silver, 1×gold) into 20 ml of ddH₂O by shaking vigorously on the thermomixer for 6 mins at room temperature. 50 μl of substrate ([…]™ […] Tablets (Sigma-Aldrich, N2770-50SET)) was added into each well and incubated for 20-25 mins at room temperature. 50 μl of STOP solution (2M Sodium Hydroxide, Solid (NaOH) (Merck, Cas #1310-73-2)) was added into each well to stop the reaction. Absorbance was read at 405 nm immediately after adding STOP solution with the ELISA reader, using the ‘RdrOle4’ software.
(§6) In order to determine the specificity of the anti-hPAR4 clones to PAR4, ELISA screening was performed as described above.

hPAR2 (Biotin) peptide [16] = biological target: T3, hPAR2 (Biotin) peptide; experiment: as above
Experimental: as §5, §6

hPAR3 (Biotin) peptide [17] = biological target: T4, hPAR3 (Biotin) peptide; experiment: as above
Experimental: as §5, §6

platelet aggregation, % of control [1]: < 50 % of control
GMFI at 10 ug/ml over isotype control [2]: 53
binding result (hPAR1 (Biotin) peptide [3]): no binding (tested: 10 ug/ml)
binding result (hPAR2 (Biotin) peptide [4]): no binding (tested: 10 ug/ml)
binding result (hPAR3 (Biotin) peptide [5]): no binding (tested: 10 ug/ml)
binding result (hPAR4 1-9 peptide): no binding
EC50 (read off the curve) (hPAR4 (naked) peptide [6]): ~0.1 µg/mL
B1: 5F.RF3.A7b.C9 (antibody, IgG2b, V domains shown)
VH: QVQLVQSGAEVKKPGASVKVSCKTSAYTFTNYGISWVRQAPGQGLEWMGWISPYNGNTNYAQKLQGRVTMTTDTSTRTAYMELRSLRSDDTAVYYCAREYNRSSRGRYYYYGMDVWGQGTTVTVSS
VL: EIVLTQSPGTLSLSPGERATLSCRASQSVSSNYLAWYQKKPGQAPRLLISGASSRATGIPDRFSGSGSGTDFTLTISRLEPEDFAVYYCQQYGSSPWTFGQGTKVEIK
notes: also called MoB5F-RF3.A7b.C9; MoB5F F3

IC50 (ug/ml) for inhibition of platelet aggregation, 0.1 U/ml thrombin [7]: 1.6 µg/mL
binding to PAR4 ratio (hPAR4 (naked) peptide [8]): 15.2 ratio
binding to PAR1 ratio (hPAR1 (Biotin) peptide [9]): 1 ratio
binding to PAR3 ratio (hPAR3 (Biotin) peptide [10]): 1.1 ratio
ELISA Pos:Neg ratio (hPAR4 (naked) peptide [11]): 13.9 ratio
GMFI at 10 ug/ml over isotype control [2]: 39
Kd (hPAR4 (Biotin) peptide [12]): 0.32 nM
koff (hPAR4 (Biotin) peptide [12]): 0.000417 s⁻¹
kon (hPAR4 (Biotin) peptide [12]): 1.32e+06 M⁻¹ s⁻¹
Kd (hPAR4 (Biotin) peptide [13]): ~0.4 nM
Kd (hPAR4 (naked) peptide [14]): 14.8 nM
koff (hPAR4 (naked) peptide [14]): 0.00487 s⁻¹
kon (hPAR4 (naked) peptide [14]): 330000 M⁻¹ s⁻¹
binding result (hPAR4 1-9 peptide): no binding
binding result (hPAR4 8-15 peptide): binds
binding result (hPAR4 11-20 peptide): no binding
binding result (hPAR1 (Biotin) peptide [15]): no binding
binding result (hPAR2 (Biotin) peptide [16]): no binding
binding result (hPAR3 (Biotin) peptide [17]): no binding
B2: 5A.RC3.F10b.H4b (antibody, IgG2a, V domains shown)
VH: QVQLVESGGGVVQPGRSLRLSCAASGFTLSNYGMHWVRQAPGKGLEWVSVIWYDGSNKHYADSVKGRFTISRDNSKNTLYLQMNSLRAEDTAVYYCARESIVEVLPPFDYWGQGTLVTVSS
VL: KIVLTQSPGTLSLSPGERVTLSCRASQRVRNNYLAWFQQKPGQAPRLFIYGASSRATGIPDRFSGSGSGTDFIFTISRLEPEDFAVYYCQQYGNSYTFGQGTKLEIK
notes: also called MoB5ARC3; MoB5A-RC3.F10b.H4b
